Data taken from the RNAGym collection of RNA variant scans (doi:10.7554/elife.80360).

B1: HDV Ribozyme (parent)
chain: GGCCGGCAUGGUCCCAGCCUCCUCGCUGGCGCCGGCUGGGCAACAUUCCGAGGGGACCGUCCCCUCGGUAAUGGCGAAUGGGACCCA

Variants of: B1
Assay: self-cleavage, relative activity (ratio to wild type); higher = more cleavage; co-transcriptional
Work on G50A A51G yielded a self-cleavage of 1.03. For C49G G52C, the self-cleavage was 0.287. For C49G G52A, the self-cleavage was 0.543. C49U C84A gave a self-cleavage of 0.786. With U47A C48A the self-cleavage was 0.973. For C48U C57A, the self-cleavage was 0.972. For C48G A70G, the self-cleavage was 0.772. Variant C49A G50C has a self-cleavage of 1.15. In the case of U47G C85A, the self-cleavage is reported as 0.959. Variant U47G C85G has a self-cleavage of 1.18. With C48A C64U the self-cleavage was 0.923. U47G C63U showed a self-cleavage of 1.27. In the case of U46G G55U, the self-cleavage is reported as 0.569. For U47A U60C, the self-cleavage was 0.88. Variant C49A G82U has a self-cleavage of 0.437. In the case of U47C C85G, the self-cleavage is reported as 0.831. In the case of U47C C85U, the self-cleavage is reported as 0.831. C48U A87U gave a self-cleavage of 0.942. In the case of C49A C64A, the self-cleavage is reported as 0.284. For C48G A77U, the self-cleavage was 0.748. U47A C61U gave a self-cleavage of 0.814. U47A C61A gave a self-cleavage of 0.886. Work on U47G G81C yielded a self-cleavage of 0.128. In the case of C48U C75A, the self-cleavage is reported as 0.199. C49A G55C gave a self-cleavage of 0.927. C48G G59C gave a self-cleavage of 0.831. C49A G53U showed a self-cleavage of 0.608. In the case of U47C U60C, the self-cleavage is reported as 1.05. In the case of U47G C49U, the self-cleavage is reported as 1.32. U47G C49G gave a self-cleavage of 0.87. In the case of U47G G53U, the self-cleavage is reported as 0.973. In the case of C49A G80C, the self-cleavage is reported as 0.0665. C49A G80U gave a self-cleavage of 0.188. In the case of C48A G73A, the self-cleavage is reported as 0.755. Work on U46G U65C yielded a self-cleavage of 0.615. Variant C48G C57G has a self-cleavage of 1.03. Work on C48U C63G yielded a self-cleavage of 0.542. Work on C48U C63U yielded a self-cleavage of 0.969. Work on U46G C49G yielded a self-cleavage of 0.465. U46G C49U showed a self-cleavage of 0.8. For U47A G54A, the self-cleavage was 0.95. Work on C49G G76U yielded a self-cleavage of 1.17. Variant U47A G68C has a self-cleavage of 0.982. In the case of C48G G53A, the self-cleavage is reported as 1.06. U47G A71U gave a self-cleavage of 1.18. C49U C62A showed a self-cleavage of 0.652. Variant U47C C86G has a self-cleavage of 0.675. C48A U79G showed a self-cleavage of 0.982. Variant C48A U79C has a self-cleavage of 0.514. Variant U47C C48A has a self-cleavage of 0.875. For U47C C48U, the self-cleavage was 0.597. For U47C G76A, the self-cleavage was 0.787. In the case of C48U G52U, the self-cleavage is reported as 0.577. In the case of C49A U69C, the self-cleavage is reported as 1.13. In the case of U46G C57G, the self-cleavage is reported as 0.804. U46G U69C gave a self-cleavage of 0.582. With G50A A56G the self-cleavage was 1.15. C49A A78U showed a self-cleavage of 0.248. For U46G A83G, the self-cleavage was 0.746. In the case of C49U G55A, the self-cleavage is reported as 0.866. Variant C48G C49G has a self-cleavage of 0.906. Variant U47A U65C has a self-cleavage of 0.8. Work on C49G A71G yielded a self-cleavage of 0.72. With C49G A71U the self-cleavage was 1.04. With C48G G54A the self-cleavage was 0.372. Variant C48G C85U has a self-cleavage of 0.831. Work on C48U U79A yielded a self-cleavage of 0.706. With C48U U79G the self-cleavage was 0.665. Variant C49U C58A has a self-cleavage of 1.02. C49U C58G gave a self-cleavage of 1.01. For C48A G74C, the self-cleavage was 0.208. Work on C48U C86A yielded a self-cleavage of 0.985. Variant C48U C86U has a self-cleavage of 1.09. In the case of C48U C86G, the self-cleavage is reported as 1.14. In the case of U47C A71U, the self-cleavage is reported as 1.11. Variant U47C A71G has a self-cleavage of 1.13. Variant U46G G68A has a self-cleavage of 0.608. C49G A87G showed a self-cleavage of 0.969. C49G A87U showed a self-cleavage of 0.913. Work on C48U C85A yielded a self-cleavage of 1.03. C48U G68U showed a self-cleavage of 0.893. C48U G68C gave a self-cleavage of 0.959. U47C G53C gave a self-cleavage of 0.653. Variant U47C G53A has a self-cleavage of 0.87. With U47G C61U the self-cleavage was 0.943. For U47G C61G, the self-cleavage was 0.554. With C48U C64A the self-cleavage was 0.554. Work on U47G C64U yielded a self-cleavage of 1.28. C49G C63U gave a self-cleavage of 0.815. C49G C63G showed a self-cleavage of 0.475. U47G U69A gave a self-cleavage of 1.27. Variant C49A G52C has a self-cleavage of 0.573. U46C G74C showed a self-cleavage of 0.277. Variant C49G C64U has a self-cleavage of 0.973. With C49G C64A the self-cleavage was 0.375. C48G C63G showed a self-cleavage of 0.306. Work on U46G A78G yielded a self-cleavage of 0.443. Work on G50A A77G yielded a self-cleavage of 0.743. In the case of C49U U69A, the self-cleavage is reported as 0.95. C49U U69G gave a self-cleavage of 1.16. For C49U A56U, the self-cleavage was 0.973. U46C U79A gave a self-cleavage of 0.798. C49A G73U gave a self-cleavage of 0.272. Work on C49A G74U yielded a self-cleavage of 0.415. In the case of C48G C84A, the self-cleavage is reported as 0.932. With U47A C75G the self-cleavage was 0.172. For U47A G80A, the self-cleavage was 0.277. Work on C49A C63G yielded a self-cleavage of 0.256. C49A C63U gave a self-cleavage of 0.817. In the case of C49A G59A, the self-cleavage is reported as 0.938. U47A U79C showed a self-cleavage of 0.312. U47A U79A showed a self-cleavage of 0.598. C48A A77C showed a self-cleavage of 0.237. With C48A A77G the self-cleavage was 0.601. With C48A A77U the self-cleavage was 0.673. For C48G G80C, the self-cleavage was 0.262. With U47A G81A the self-cleavage was 0.341. C49G G55C showed a self-cleavage of 1.03. Work on U47G A83C yielded a self-cleavage of 0.434. Work on C48A A87C yielded a self-cleavage of 1.16. With C48A A87U the self-cleavage was 1.03. U47C U72G gave a self-cleavage of 0.791. In the case of C49U C86G, the self-cleavage is reported as 1.16. Work on C49U C86U yielded a self-cleavage of 0.882. U47C A83G gave a self-cleavage of 0.612. Work on C48U A56C yielded a self-cleavage of 0.657. Variant U47G U79C has a self-cleavage of 0.322. Work on U46G A51U yielded a self-cleavage of 0.45. U47A G82U gave a self-cleavage of 0.142. Variant U47A G82A has a self-cleavage of 0.298. Work on C48A A51C yielded a self-cleavage of 1.03. For C48A A51G, the self-cleavage was 0.903. Work on C48G U60A yielded a self-cleavage of 0.864. For U47A C57U, the self-cleavage was 0.944. Work on C49G G54U yielded a self-cleavage of 0.519. For U47A A77G, the self-cleavage was 0.831. Variant C48A G80U has a self-cleavage of 0.242. In the case of C48A U65A, the self-cleavage is reported as 0.845. U46C U60C showed a self-cleavage of 0.772. For C49U C64G, the self-cleavage was 0.684. In the case of U47A C85G, the self-cleavage is reported as 0.665. C49U G81A gave a self-cleavage of 0.378. With U47G A78G the self-cleavage was 1.19. For C49G G73U, the self-cleavage was 0.322. C48A G52C gave a self-cleavage of 1.03. C48A G68U gave a self-cleavage of 1.1. With C49G C75U the self-cleavage was 0.201. For U47C U65A, the self-cleavage was 0.923. For U46G A56G, the self-cleavage was 0.499. With U46G A56U the self-cleavage was 0.917. C49U C66G showed a self-cleavage of 0.892. U47C G50A gave a self-cleavage of 0.749. C48U G50U showed a self-cleavage of 0.742. With C48G C86A the self-cleavage was 1.09. U47C A51G gave a self-cleavage of 0.969. U47G A87U showed a self-cleavage of 0.974. Variant U47G C86A has a self-cleavage of 0.814. For U46C U69G, the self-cleavage was 1.08. In the case of U46C U69A, the self-cleavage is reported as 0.918. With U47C U79C the self-cleavage was 0.297. For U47C U79A, the self-cleavage was 0.65. With U47C U79G the self-cleavage was 0.415. For C48A G59A, the self-cleavage was 1.22. Variant U46C G73U has a self-cleavage of 0.151. U46C G73A showed a self-cleavage of 0.475. Variant U47G G82C has a self-cleavage of 0.237. In the case of U46G G53A, the self-cleavage is reported as 0.527.
